Read-outs that look alike come from different tables or passages of the source.
What was measured:
human CCL18 (human) [1] = molecular target: human CCL18 (human) (UniProt P55774); assay: SAXS
human CCL18 (human) [2] = molecular target: human CCL18 (human) (UniProt P55774); assay: SAXS; remark: listed apart in the source

Substance “human CCL18 (from UniProt P55774 21-89) (natural protein)” has a percent of the population as dimer (human CCL18 (human) [1]) of 28%, a percent of the population as hexamer (human CCL18 (human) [1]) of 24% and a percent of the population as monomer (human CCL18 (human) [1]) of 48%. For the same substance, the percent of the population as dimer (human CCL18 (human) [2]) was 32%, the percent of the population as monomer (human CCL18 (human) [2]) was 65% and the percent of the population as tetramer (human CCL18 (human) [2]) was 3%.
